Results from US20140010886A1, “COMPOSITIONS COMPRISING SACCHARIDE BINDING MOIETIES AND METHODS FOR TARGETED THERAPY” (GEORGIA TECH RESEARCH CORPORATION, priority 2011, published 2014).

B1: PNA: lectin peanut agglutinin, recognizes the glycan moiety GalNAc (protein, UniProt P02872 24-273, looked up)
Galactose-binding lectin: AETVSFNFNSFSEGNPAINFQGDVTVLSNGNIQLTNLNKVNSVGRVLYAMPVRIWSSATGNVASFLTSFSFEMKDIKDYDPADGIIFFIAPEDTQIPAGSIGGGTLGVSDTKGAGHFVGVEFDTYSNSEYNDPPTDHVGIDVNSVDSVKTVPWNSVSGAVVKVTVIYDSSTKTLSVAVTNDNGDITTIAQVVDLKAKLPERVKFGFSASGSLGGRQIHLIRSWSFTSTLITTTRRSIDNNEKKIMNMASA
B2: ECL: erythrina cristagalli lectin, recognizes the glycan moiety GlcNAc (protein, listed as Homo sapiens)
chain: VETISFSFSEFEPGNNDLTLQGAAIITQSGVLQLTKINQNGMPAWDSTGRTLYTKPVHIWDMTTGTVASFETRFSFSIEQPYTRPLPADGLVFFMGPTKSKPAQGYGYLGVFNNSKQDNSYQTLAVEFDTFSNPWDPPQVPHIGIDVNSIRSIKTQPFQLDNGQVANVVIKYDASSKILLAVLVYPSSGAIYTIAEIVDVKQVLPEWVDVGLSGATGAQRDAAETHDVYSWSFHASLPETND

Experiments:
[1] = system: CD133+ GBM-CSCs; assay: Lectin panel labeling of CD133+ GBM-CSCs during differentiation (flow cytometry); format: binding, human; settings: for recognition of GBM-CSCs by lectin after differentiation: after 12 days of differentiation; for recognition of undifferentiated GBM-CSCs by lectin: day 1, undifferentiated CD133+ GBM-CSCs
Method: The fact that lectin moieties recognize carbohydrates located on the surface of cells makes them a great tool to identify changes in glycosylation patterning during differentiation. We used a panel of 20 lectins to study the patterning of CD133^+ GBM-CSCs surface glycosylation during differentiation (Table 1). Neurospheres derived from CD133^+ GBM-CSCs were grown as mentioned above and were plated onto polyornithin and laminin coated tissue culture grade plastics. Within 10 hours the neuroshperes adhered and neurite formations were observed. Differentiation continued for 12 days, and harvested cells (day 1 and day 12) were labeled with our panel of lectins (FIG. 2A). […] Furthermore, the recognition and decrease in recognition of GalNAc and GlcNAc coincide with the expression of GBM-CSC marker CD133-glycosylation (CD133-G) and general stem cell markers OCT 4 and SOX2 (FIG. 3C). OCT 4 and SOX2 have been well studied in GBMs and are accepted indicators of sternness in GBM cell lines.

[2] = system: DBA positive sorted cells (CTB-1 GBM-CSCs); assay: Lectin reactivity of DBA positive sorted GBM-CSCs (flow cytometry); format: binding, human; settings: for lectin reactivity of DBA positive sorted cells: day 1; for lectin reactivity of DBA positive sorted cells by day 12: day 12 of differentiation
Text: The percent of cells with specific carbohydrate expression as determined by flow cytometry using 8 different lectins. The data are means+/−SD of 3 independent assays of CTB-1 GBM-CSCs. CTB-1 cell line was stained with CD133, OCT4, and SOX2 antibody in addition to lectin staining Statistical significance (p≦0.05) is indicated by asterisk.
DBA lectin positive cells made up less than 1% of the total population and phenotypically appeared to proliferate at a much slower rate than the DBA negative population. […] Increased proliferation in DBA negative populations can be visualized via microscopy at day 1 and day 12 (FIG. 7). At day 12 the DBA negative population appears to be denser than the DBA positive population (FIG. 7), however, both populations are able to produce GFAP positive cells (Astrocytes) identical to the CD133 positive sorted cells (FIG. 7). […] DBA negative sorted cells contradict the aforementioned, and show low reaction towards GalNAc and GlcNAc recognizing lectins and this continues to decrease by day 12 (FIG. 8B). Con A remains high throughout in both populations and serves as a positive control (FIGS. 8A and 8B). However, GBM-CSC marker CD133-G and general stem cell markers OCT 4 and SOX 2 are high in the DBA positive sorted cells, and similar to DBA reactivity, decreases substantially by day 12 of differentiation (FIG. 8A). However, in the DBA negative population these stem cell markers uniformly are low at day one and are almost non-existent by day 12 (FIG. 8A). Until now CD133 has been considered the only marker for CSCs derived from GBM brain tumors. However, using cell sorting technology, DBA lectin, which recognizes GalNAc, we were able to separate CD133^+ cells from CD133− cells.

| Molecule | recognition of GBM-CSCs by lectin after differentiation [1] | recognition of undifferentiated GBM-CSCs by lectin [1] | lectin reactivity of DBA positive sorted cells [2] | lectin reactivity of DBA positive sorted cells by day 12 [2] |
| --- | --- | --- | --- | --- |
| SBA: lectin soybean agglutinin, recognizes the glycan moiety GalNAc | markedly decreased | highly recognized | high reactivity | decrease |
| B1 | markedly decreased | highly recognized | high reactivity | decrease |
| B2 | noticeably decreased | highly recognized | highly reactive | decreased |
